# Measurements published in IntAct's records for PubMed 22398447.
# B1: Origin recognition complex subunit 1 (Homo sapiens), Q13415 (parent)
# chain: MAHYPTRLKTRKTYSWVGRPLLDRKLHYQTYREMCVKTEGCSTEIHIQIGQFVLIEGDDDENPYVAKLLELFEDDSDPPPKKRARVQWFVRFCEVPACKRHLLGRKPGAQEIFWYDYPACDSNINAETIIGLVRVIPLAPKDVVPTNLKNEKTLFVKLSWNEKKFRPLSSELFAELNKPQESAAKCQKPVRAKSKSAESPSWTPAEHVAKRIESRHSASKSRQTPTHPLTPRARKRLELGNLGNPQMSQQTSCASLDSPGRIKRKVAFSEITSPSKRSQPDKLQTLSPALKAPEKTRETGLSYTEDDKKASPEHRIILRTRIAASKTIDIREERTLTPISGGQRSSVVPSVILKPENIKKRDAKEAKAQNEATSTPHRIRRKSSVLTMNRIRQQLRFLGNSKSDQEEKEILPAAEISDSSSDEEEASTPPLPRRAPRTVSRNLRSSLKSSLHTLTKVPKKSLKPRTPRCAAPQIRSRSLAAQEPASVLEEARLRLHVSAVPESLPCREQEFQDIYNFVESKLLDHTGGCMYISGVPGTGKTATVHEVIRCLQQAAQANDVPPFQYIEVNGMKLTEPHQVYVQILQKLTGQKATANHAAELLAKQFCTRGSPQETTVLLVDELDLLWTHKQDIMYNLFDWPTHKEARLVVLAIANTMDLPERIMMNRVSSRLGLTRMCFQPYTYSQLQQILRSRLKHLKAFEDDAIQLVARKVAALSGDARRCLDICRRATEICEFSQQKPDSPGLVTIAHSMEAVDEMFSSSYITAIKNSSVLEQSFLRAILAEFRRSGLEEATFQQIYSQHVALCRMEGLPYPTMSETMAVCSHLGSCRLLLVEPSRNDLLLRVRLNVSQDDVLYALKDE
# Variants of: B1
# Conditions: with h4_bovin h4, P62803
row,effect of a mutation on the interaction,Variant
1,disrupting interaction strength,W88A
2,disrupting interaction strength,Y64A
3,disrupting interaction strength,E94A
